Laboratory results published in the supplement of paper PMC12042874.
± gives the uncertainty stated by the source.

Test: amyloid nucleation score (Sup35N fusion, yeast selection) (log enrichment); library NNK1; higher = more nucleation; inactive = no reads after selection
In short: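 The nucleation score is a DiMSum log enrichment of output over input reads, centred on the mode score of non-aggregating sequences. Sequences under 100 input reads were excluded, and reads came from Illumina sequencing of plasmid inserts. Psi-negative yeast expressing Sup35N fused to peptides of 20 random codons were induced with 100 μM copper sulfate for 24 hours and grown 7 days at 30°C on medium lacking adenine and uracil. Random libraries had three technical output replicates.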

| Substance | amyloid nucleation score |
| --- | --- |
| LAREAGR | inactive |
| LASLDLCVISLMNNHVDRTD | 0.94 ± 0.29 |
| LASTVSDWN | 0.32 ± 0.39 |
| LAVERGHCIQVRGLKCLIES | 1.66 ± 0.47 |
| LCALSEVLVLCDSY | 0.29 ± 0.96 |
| LCAMIPAVGRYWSCVVGHSV | -0.013 ± 1.6 |
| LCDYKRPCMTMYNHHELLII | 0.005 ± 0.47 |
| LCEMLF | -0.202 ± 0.61 |
| LCGSGGLMCRQGHYAEMGGC | -0.287 ± 1.1 |
| LCIMF | -0.446 ± 0.69 |
| LCINLVYRKISPALRF | -0.859 ± 0.75 |
| LCKRNVKCQFL | 0.192 ± 0.59 |
| LCLISDMPKHFGCGYTKCSL | -1.17 ± 0.63 |
| LCLRVEGGNKPTEHCITSPT | -0.234 ± 0.43 |
| LCLYGVC | -0.164 ± 0.56 |
| LCQVTG | 0.391 ± 0.48 |
| LCSMTKTNVVRSECRVLTRR | 1.86 ± 0.65 |
| LCTDCLSGTVSDCRMFSHNR | -0.592 ± 0.75 |
| LCVNERVHQSLSRQRIPNCL | 1.26 ± 0.61 |
| LCWRYMVLRMNFFAADLYYN | 1.39 ± 0.32 |
| LDAGH | -1.56 ± 1.8 |
| LDARKKARMWRNTIDMDELV | inactive |
| LDCDSSLGRN | 0.722 ± 0.39 |
| LDCELLQRNFSNTKGHPIYR | 0.052 ± 0.35 |
| LDGVFNTTIATVNSFREYLM | 0.132 ± 0.48 |

| Substance | amyloid nucleation score |
| --- | --- |
| LDHNGEGFFFKGSLFVNCLA | -0.912 ± 1.6 |
| LDILDLVRTNVIRTKKPFEI | -0.348 ± 0.83 |
| LDKYLHLRLWHTVFWYSTIK | inactive |
| LDNIMVCNYAE | inactive |
| LDQIQIFSEIGVFRLVCQHI | -0.164 ± 0.64 |
| LDRVWMYTIRLLQMKAMVLP | 0.497 ± 0.64 |
| LDSGQAPSMLLWGSNYWEKL | 0.808 ± 0.9 |
| LDSTLSLQ | 0.071 ± 0.3 |
| LDTIVIVWRNCLRYKFHLCL | -0.057 ± 0.84 |
| LEALGYLWDKWAYYAMVMRS | 0.836 ± 0.97 |
| LERKMYRNISSLTVVGYTMS | -0.095 ± 0.51 |
| LFFQPLVLFKKRLEYCFRLL | 0.2 ± 0.6 |
| LFGKRCGHGQCQDHWKAVCV | -0.008 ± 0.61 |
| LFHRIV | -0.353 ± 0.54 |
| LFILPCQVNLHECMVLCLFE | 5.91 ± 0.06 |
| LFLCRILYCLWVNVFLLGHE | 0.367 ± 0.32 |
| LFRDACLGMR | -0.494 ± 0.48 |
| LFSRFCTTVCKSTFRFDTR | 1.65 ± 0.76 |
| LFSRVFSAANVIRHNFLFME | 0.746 ± 0.9 |
| LFVMSWYNYAVKFVAINTIT | -0.031 ± 0.24 |
| LFVNM | inactive |
| LFWASVSSWYDGEGVGKPDV | 0.134 ± 0.47 |
| LGAQGLFVYSLLCQT | -0.126 ± 0.68 |
| LGESREVSGHDNRCWAFQ | 0.594 ± 0.49 |
| LGESTGIFFYGEIRPYLNGS | -0.148 ± 0.64 |

| Substance | amyloid nucleation score |
| --- | --- |
| LGKNFLYISCSLTDQGAGLH | 2.7 ± 0.16 |
| LGMKSVKWL | 0.345 ± 0.53 |
| LGMWRCKPRTTLAWSYLDPV | 0.179 ± 0.71 |
| LGQLFHGGCD | 0.3 ± 0.43 |
| LGRGTKMLLKVYTVRTSNYR | 0.592 ± 0.58 |
| LGRSWWYYSQLWDSRHLSF | -0.38 ± 1.5 |
| LGVIYLRLWFQSGGRQVLEG | 0.089 ± 0.42 |
| LHLECLWCLARTSYF | 8.244 ± 0.045 |
| LHRNSTPFIWHRRIEVSLGN | -0.201 ± 1.3 |
| LIARMWANFRRGVSITARF | 0.87 ± 0.87 |
| LICSSYTNLALILHLWSKRF | 0.209 ± 0.26 |
| LIDLCGLCFEAR | 0.181 ± 0.26 |
| LIGHRSRS | -1.57 ± 1.1 |
| LILHSNSGFNGYWVSQWNTM | -0.304 ± 0.44 |
| LIQLVDRVGGGVFTRDCDAI | -0.368 ± 0.47 |
| LISFSCVVNSLAEPRYIFLS | 1.13 ± 0.88 |
| LITNP | 2.86 ± 0.12 |
| LIVLWNCSADPDGFMWCSKC | inactive |
| LIYFKGSS | 0.399 ± 0.79 |
| LKAELSNLKAHVLW | 0.777 ± 0.54 |
| LKAGFM | -0.102 ± 0.28 |
| LKAIFVFFVEFRDPLIMRES | 0.269 ± 0.79 |
| LKDCSCVERQD | -0.072 ± 0.38 |
| LKKTYYSMYL | -0.045 ± 0.33 |
| LKQTPMLGDMGWGHRCLGKT | -0.262 ± 0.73 |

| Substance | amyloid nucleation score |
| --- | --- |
| LKRDSFWVLIKWTRLDMGVS | 0.056 ± 0.37 |
| LKRVGSNLNT | -0.229 ± 1.4 |
| LKTSRMFLG | -0.68 ± 0.39 |
| LKVTCFRTYANFGRYDILVF | 0.096 ± 0.53 |
| LKWSSGHGKIGSNVWRRVYC | 0.42 ± 1.2 |
| LKWWWIQNAGCTVVIMVL | -0.701 ± 0.54 |
| LLAIHAYREVLTGPGCGYLT | 1.15 ± 0.66 |
| LLAPAS | 0.032 ± 0.35 |
| LLASRPEG | -0.437 ± 0.35 |
| LLAVCYVIF | 1.98 ± 0.24 |
| LLCSKCGFTDQFQS | -1.09 ± 1.2 |
| LLCTYISTEAPIVTFLRLTY | -0.667 ± 0.44 |
| LLDRLRRTGLRRCYVSGEFP | 5.89 ± 0.084 |
| LLGDMMALQAYSELLRFMSG | -0.234 ± 0.61 |
| LLGVSAF | -0.718 ± 0.68 |
| LLHVYYFFISWPMFCMVYM | -0.203 ± 0.72 |
| LLIGWASEDHRYKGISNGGG | 0.598 ± 0.34 |
| LLKSKGGLPILRPCWLPFWQ | 0.066 ± 0.75 |
| LLLAY | -0.716 ± 0.44 |
| LLLDLILY | -0.505 ± 0.72 |
| LLLIRSYKCNGRRIRICSLL | -0.862 ± 0.76 |
| LLLYPRMGDRGTYYGMSGIR | -1.01 ± 2.7 |
| LLRLLVRAVMFFWAWGSRGA | inactive |
| LLSIVPPDIFCQFSGHGRLT | 0.26 ± 0.62 |
| LLTSMSSGLVDYR | inactive |

| Substance | amyloid nucleation score |
| --- | --- |
| LLVCSMHFISMTPVMPNSTA | 2.12 ± 0.24 |
| LLVVSYFITSLSTCMFGYWK | -0.411 ± 0.63 |
| LLWAPILCLTGDNTVGFLSP | 3.3 ± 0.066 |
| LLWGATFCSSIQPDYNLSPV | -0.095 ± 0.44 |
| LMFGLAMVNENPRGLSELRR | 0.065 ± 0.27 |
| LMFSDGWFLNGEISPWVGF | -0.393 ± 0.71 |
| LMKGTYFIMCNLLAYECLTR | 2.78 ± 0.14 |
| LMSLRDQRVLALN | -0.533 ± 0.44 |
| LMSWEL | 0.462 ± 1.2 |
| LMTLINPQFFSCSFLDDVSN | -0.362 ± 0.6 |
| LMWSMPNGTSYGNGPVEWTG | -0.515 ± 0.81 |
| LNDRYYVIM | 0.233 ± 0.93 |
| LNFIHNGM | -0.444 ± 1.9 |
| LNGPTVTKECRGAYMVMPGT | -0.431 ± 1.1 |
| LNHSYMICLFLCNR | 6.95 ± 0.073 |
| LNINSFFVFGT | 4.97 ± 0.057 |
| LNIRVIRGLGRMNAPVVSDL | 1.32 ± 0.57 |
| LNLAKPLFSHRLRRFKCSYF | 2.08 ± 0.23 |
| LNPCHWGAFLY | 0.648 ± 0.67 |
| LNRSNWANFCMAEFMDPRS | 0.488 ± 0.58 |
| LNSYVRG | 0.201 ± 0.3 |
| LNWMCTNWAMFFYTQVILQY | -0.488 ± 1.1 |
| LNYTVQSDTWHLNWQP | 0.875 ± 0.93 |
| LPFEVRLDCDVVGGG | 0.725 ± 0.48 |
| LPFMTHVHVLSRQKTKVKGR | -0.041 ± 0.28 |

| Substance | amyloid nucleation score |
| --- | --- |
| LPFNVL | 3.09 ± 0.2 |
| LPLHAESTGCYGLFSEHFSI | -1.27 ± 1.2 |
| LPRRKLNFIGLKISISIIAV | inactive |
| LPSGLRCRTSRMDVAKLAK | 0.441 ± 0.47 |
| LPSSGA | -0.019 ± 0.64 |
| LPWLPLKSRYALTAKFTCEP | 0.261 ± 1.2 |
| LPWYSSQMRADVSTPERWFL | -0.224 ± 0.7 |
| LQGCGYYKFGITEEWH | 0.415 ± 0.78 |
| LQNETLSMSMRLLMAYFIKL | 0.13 ± 1.2 |
| LQWNRERGLTLLSWLRYKSI | -0.505 ± 1.5 |
| LRAFR | 1.81 ± 0.33 |
| LRDNMLSEGMQLYCMARASA | -0.201 ± 0.72 |
| LRFVVFASTIGRGIGST | -0.892 ± 0.48 |
| LRHTCVRPSWSNAIFMPNSA | 0.834 ± 0.57 |
| LRIFSA | 1.22 ± 0.8 |
| LRIRYT | 2.42 ± 0.17 |
| LRKCSLAVPYGLRLVYLRKE | 0.14 ± 0.54 |
| LRKSHYFTY | -0.429 ± 0.58 |
| LRKTFF | 0.38 ± 0.33 |
| LRLTALGSSRPIKFEGNVGY | -0.532 ± 0.68 |
| LRMKANYVTSAFNRCVLLLG | 0.425 ± 0.41 |
| LRNRMGNDIISILITIPKIV | 0.217 ± 0.34 |
| LRRLNRHFIVTFFNGTRCDF | 2.1 ± 0.26 |
| LRSGKAQYTEVVLLRIRPGF | -1.4 ± 2.7 |
| LRTRSLTALFQLCYHTCNVG | 0.431 ± 0.42 |

| Substance | amyloid nucleation score |
| --- | --- |
| LRVQWRQSTFN | 0.865 ± 0.48 |
| LRYCNMHHRHDSYGLSSYSY | 2.21 ± 0.11 |
| LRYSYTRDHSGTPYPSTGNS | -0.74 ± 1.1 |
| LSATGGMGIRF | -0.318 ± 1.2 |
| LSCPRLVTLCCNLWDKYSLW | 0.955 ± 0.28 |
| LSCPRNYWRSSLLVFMDGSQ | 0.319 ± 0.63 |
| LSCSFDESW | 0.024 ± 0.24 |
| LSERYVSTGVARDSGNAKVG | 3.88 ± 0.11 |
| LSEYVKEAVVDPRLTFARIA | -0.764 ± 0.89 |
| LSIRYWCYNLRLVQAHCFRV | -0.657 ± 0.56 |
| LSLNIYCMRS | 7.155 ± 0.045 |
| LSLTRAMGIYFRWVLSRSFG | -0.837 ± 2.4 |
| LSLYESLSNPLVRSYRLFCR | 0.517 ± 0.45 |
| LSNKLEYPMSPLISAVLFSA | inactive |
| LSNLDMVM | inactive |
| LSRFEQGHELLHKSVIYCEV | -0.304 ± 0.32 |
| LSSFMAAGVSLMCNTFLIWH | 0.729 ± 0.51 |
| LSSSGFWYWFT | -0.251 ± 0.32 |
| LSTGLKFACATRVSYALVRV | 0.117 ± 0.5 |
| LSVNICKKY | 3.5 ± 0.1 |
| LSVQTWFGLSACYTGQAKYS | 0.171 ± 1.2 |
| LSWES | -0.866 ± 0.73 |
| LSYDSYSYIGLGGSLEIFWA | 0.182 ± 0.71 |
| LSYEDSSFNFLNSFYIKSWW | -0.161 ± 0.5 |
